This is an account of results in patent publication US20100178253A1 (published 2010).

Bridges are numbered along the chain shown (N, C = ends).

For one test, the target named is T1, human serum albumin (human, UniProt P02768 25-609).
T1 construct: also called HSA; plasma protein (PPB)
As to the kind of experiment: fluorescence polarisation, change of polarisation value with human serum albumin. A general note: In fluorescence polarisation assays a small probe gives low polarisation when free and higher when bound to something large.

Test [1] concerns the target T2, human c-Met/Fc chimera (R&D Systems) (human, UniProt P08581 25-932).
T2 construct: Bought from R&D Systems; Printed once as 'c-Met/Fe chimera' [sic]; also called human c-Met/Fe chimera; not shown: Fc part (and any linker or tag) of the bought chimera
As to the kind of experiment: fluorescence polarisation (anisotropy), 5 nM dye-labelled peptide, c-Met/Fc 0-250 nM, one-site fit. As to the method:
The fluorescence anisotropy measurements were performed in 384-well microplates in a volume of 10 μL in binding buffer (PBS, 0.01% Tween-20, pH 7.5) using a Tecan Safire fluorescence polarisation plate reader (Tecan, US) at Ex 635/Em 678 nm. The to concentration of dye-labelled peptide was held constant (5 nM) and the concentration of the human c-Met/Fe chimera (R&D Systems) was varied from 0-250 nM. Binding mixtures were equilibrated in the microplate for 10 min at 30° C. The observed change in anisotropy was fit to the equation

T1 sequence (P02768 25-609 limits assumed): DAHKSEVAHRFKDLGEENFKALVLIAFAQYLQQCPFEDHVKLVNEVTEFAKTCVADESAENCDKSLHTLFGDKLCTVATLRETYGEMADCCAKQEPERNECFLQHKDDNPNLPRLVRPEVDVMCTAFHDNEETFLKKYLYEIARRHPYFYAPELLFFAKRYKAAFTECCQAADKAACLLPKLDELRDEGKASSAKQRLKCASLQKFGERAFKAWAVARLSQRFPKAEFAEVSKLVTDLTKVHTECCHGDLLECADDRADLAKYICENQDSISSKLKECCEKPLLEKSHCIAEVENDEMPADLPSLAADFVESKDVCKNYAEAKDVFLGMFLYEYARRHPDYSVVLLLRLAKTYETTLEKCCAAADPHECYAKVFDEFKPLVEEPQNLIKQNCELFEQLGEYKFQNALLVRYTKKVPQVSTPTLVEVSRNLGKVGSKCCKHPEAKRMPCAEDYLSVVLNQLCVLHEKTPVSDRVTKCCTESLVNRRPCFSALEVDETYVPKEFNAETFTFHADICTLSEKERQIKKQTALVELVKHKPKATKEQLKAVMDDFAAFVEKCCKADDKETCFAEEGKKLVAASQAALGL
T2 sequence (P08581 25-932 limits assumed, change not shown): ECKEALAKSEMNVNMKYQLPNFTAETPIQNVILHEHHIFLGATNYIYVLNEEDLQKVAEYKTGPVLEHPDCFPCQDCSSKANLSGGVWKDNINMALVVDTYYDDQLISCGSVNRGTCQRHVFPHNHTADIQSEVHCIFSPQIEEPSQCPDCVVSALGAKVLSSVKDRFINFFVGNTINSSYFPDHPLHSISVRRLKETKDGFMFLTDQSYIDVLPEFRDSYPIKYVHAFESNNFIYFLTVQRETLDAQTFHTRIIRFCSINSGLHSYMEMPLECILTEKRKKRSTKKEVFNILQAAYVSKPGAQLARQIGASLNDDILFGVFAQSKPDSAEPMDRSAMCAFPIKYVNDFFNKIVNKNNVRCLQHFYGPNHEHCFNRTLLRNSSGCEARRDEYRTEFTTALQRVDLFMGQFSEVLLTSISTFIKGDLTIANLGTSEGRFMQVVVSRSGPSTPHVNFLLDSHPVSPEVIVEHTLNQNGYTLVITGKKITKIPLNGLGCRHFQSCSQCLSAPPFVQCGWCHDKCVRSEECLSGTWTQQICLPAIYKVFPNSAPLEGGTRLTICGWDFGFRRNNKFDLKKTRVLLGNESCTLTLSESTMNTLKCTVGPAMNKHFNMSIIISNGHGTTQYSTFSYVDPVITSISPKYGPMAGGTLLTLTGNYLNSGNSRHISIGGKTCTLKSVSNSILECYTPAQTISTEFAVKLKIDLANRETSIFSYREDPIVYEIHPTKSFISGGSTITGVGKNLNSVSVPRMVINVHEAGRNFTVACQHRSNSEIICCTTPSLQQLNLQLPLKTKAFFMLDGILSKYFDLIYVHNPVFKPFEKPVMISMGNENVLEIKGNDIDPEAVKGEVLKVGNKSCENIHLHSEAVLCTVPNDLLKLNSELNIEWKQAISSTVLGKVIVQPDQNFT

B1: Compound 3 ([Peptide 1]-DY-633 conjugate) (peptide)
peptide: Ac-AGSCYCSGPPRFECWCYETEGTGGGK-NH2
modifications: disulfide 6-14, 4-16; not fully specified (residue 26); also: DY-633 dye attached, site not given here
What is called Kd is the constant that tells how readily two partners part at equilibrium. For the molecule B1, the “PPB (% change in polarisation value)” value with human serum albumin was determined as 27%. The molecule further displayed a Kd in test [1] of 0.5 nM.

B2: Compound 4 ([Peptide 1]-DY-650 conjugate) (peptide)
peptide: Ac-AGSCYCSGPPRFECWCYETEGTGGGK-NH2
modifications: disulfide 6-14, 4-16; not fully specified (residue 26); also: DY-650 dye attached, site not given here
With B2, the PPB (% change in polarisation value) with human serum albumin came out at 55%. This molecule gave a Kd in test [1] of 3.2 nM.

B3: Compound 6 ([Peptide 1]-DY-652 conjugate) (peptide)
peptide: Ac-AGSCYCSGPPRFECWCYETEGTGGGK-NH2
modifications: disulfide 6-14, 4-16; not fully specified (residue 26); also: DY-652 dye attached, site not given here
With B3, the “PPB (% change in polarisation value)” value in the test with human serum albumin worked out at 46%. The molecule further returned a Kd in test [1] of 0.9 nM.

B4: Compound 1 ([Peptide 1]-DY-630 conjugate) (peptide)
peptide: Ac-AGSCYCSGPPRFECWCYETEGTGGGK-NH2
modifications: disulfide 6-14, 4-16; not fully specified (residue 26); also: DY-630 dye attached, site not given here
notes: Printed in three-letter code, turned into one-letter code here
The molecule B4 showed a PPB (% change in polarisation value) with human serum albumin of 36%. The molecule also had a Kd in test [1] of 2.2 nM.

B5: Compound 5 ([Peptide 1]-DY-651 conjugate) (peptide)
peptide: Ac-AGSCYCSGPPRFECWCYETEGTGGGK-NH2
modifications: disulfide 6-14, 4-16; not fully specified (residue 26); also: DY-651 dye attached, site not given here
With B5, the PPB (% change in polarisation value) with human serum albumin came out at 49%. The molecule also registered a Kd in test [1] of 2.2 nM.

B6: Compound 2 ([Peptide 1]-DY-631 conjugate) (peptide)
peptide: Ac-AGSCYCSGPPRFECWCYETEGTGGGK-NH2
modifications: disulfide 6-14, 4-16; not fully specified (residue 26); also: DY-631 dye attached, site not given here
With B6, the “PPB (% change in polarisation value)” value with human serum albumin was 33%. This molecule also came in with a Kd in test [1] of 0.5 nM.
